Measurements reported in US11667697.

Legend:
[1] = molecular target: MPXV ortholog of A33 (monkeypox virus); experiment: lysate ELISA
[2] = molecular target: MPXV ortholog of A33 (monkeypox virus); experiment: cell-based or functional assay
[3] = molecular target: MPXV ortholog of I1 (monkeypox virus); experiment: lysate ELISA
[4] = molecular target: CPXV ortholog of I1 (cowpox virus); experiment: lysate ELISA
[5] = molecular target: VACV I1 protein (vaccinia virus); experiment: lysate ELISA
[6] = molecular target: CPXV ortholog of H3 (cowpox virus); experiment: lysate ELISA
[7] = molecular target: MPXV ortholog of H3 (monkeypox virus); experiment: lysate ELISA
[8] = molecular target: CPXV ortholog of H3 (cowpox virus); experiment: cell-based or functional assay
[9] = molecular target: MPXV ortholog of the A27 VACV protein (monkeypox virus); experiment: purified antigen ELISA
[10] = molecular target: VARV ortholog of A27 (variola virus); experiment: purified antigen ELISA
[11] = molecular target: MPXV ortholog of the A27 VACV protein (monkeypox virus); experiment: lysate ELISA
[12] = molecular target: CPXV ortholog of A27 (cowpox virus); experiment: lysate ELISA
[13] = molecular target: MPXV ortholog of the A27 VACV protein (monkeypox virus); experiment: cell-based or functional assay
[14] = molecular target: VARV ortholog of A33 (variola virus); experiment: purified antigen ELISA
[15] = molecular target: CPXV ortholog of A33 (cowpox virus); experiment: lysate ELISA
[16] = molecular target: CPXV ortholog of A27 (cowpox virus); experiment: cell-based or functional assay
[17] = molecular target: MPXV ortholog of H3 (monkeypox virus); experiment: cell-based or functional assay
[18] = molecular target: VARV ortholog of L1 (variola virus); experiment: purified antigen ELISA
[19] = molecular target: CPXV ortholog of L1 (cowpox virus); experiment: lysate ELISA
[20] = molecular target: MPXV ortholog of L1 (monkeypox virus); experiment: cell-based or functional assay
[21] = molecular target: CPXV ortholog of L1 (cowpox virus); experiment: cell-based or functional assay
[22] = molecular target: MPXV ortholog of I1 (monkeypox virus); experiment: cell-based or functional assay

B1: MPXV-39 (antibody, V domains shown)
VH: QVQLQQWGAGLLKPSETLSLTCAIYGGSLSGQYWSWIRQPPGRGLEWIGEIHHKGRTNYNPSLKSRVTISIDTSQRQFSLRLTSVSAADTAVYYCASGNYRLGQGTLVTF
VL: DVVLTQSPLTLPVTLGQPASISCRSSQSLVYSDGDTYLNWFQQRPGQAPRRLIYKVSKRDFGVPDRFSGSGSGTDFTLRISRVEAEDVGVYYCMQGTHWPRTFGQGTQVDIK
[1]
  EC50: > 47 µg/mL
[2]
  PRNT Emax, MPXV EV+C': 56%
  PRNT IC50, MPXV EV+C': 100 µg/mL

B2: MPXV-71 (antibody, V domains shown)
V domain 1: EVQLVESGGGLVQPGESLKISCSASGFTFSDYAMHWVRQAPGQGLQYVSAISSNGHSTYYADSVKGRFTFSRDNSKNTLYLQMSSLRPEDTAVYYCVRCLLRGLISPFDYWGQGTLV
V domain 2: QSVLTQPPSVSEAPRQRVTISCSGSSSNIGNNAVNWYQQLPGKAPKLLIYYDDLLPSGVSDRFSGSKSGTTASLTISGPPEDEADFYCSTWDYSLSARVFGGGTQVTVL
[3]
  EC50: 0.006 µg/mL
[4]
  EC50: 0.014 µg/mL
[5]
  EC50: 0.022 µg/mL

B3: VACV-315 (antibody, V domains shown)
VH: EVQLLESGGGLVQPGGSLKLSCAASGFIFSNYAMGWVRQAPGKGLEWVSALSASDGVTSYADSVKGRFTISRDNSKNTMYLQMNRLRTEDTAIYFCAKGRARVNNIYRYFDHWGQGTLVTVSS
VL: QSVLTQPASVSGSPGQSITISCTGTSSDVGAYTFVSWYQHHPGKAPKLIIYEVSNRPSGVSDRFSGSKSGNTASLTISGLQAEDEADYYCNSYTTTSPWVFGGGTQLTVL
[6]
  EC50: 0.002 µg/mL
[7]
  EC50: 0.001 µg/mL
[8]
  PRNT Emax, CPXV MV+C': 70%
  PRNT IC50, CPXV MV+C': 2.8 µg/mL

B4: VACV-303 (antibody, V domains shown)
VH: EVQLLESGGGLVQPGGSLRLSCAASGFTFSSYAMSWVRQAPGKGLEWVSAISGTGGNTYYADSVKGRFTISRDKSKNTLYLQMHSLRAEDTAVYYCATSLIWWLQSDYWGQGTLVTVSS
VL: DIQMTQSPSSLSASVGDRVTITCRASQSIASYLIWYQQKPGNAPKLLIYAASSLQSGVPSRFSGSGSGTDFTLTISSLQPEDFATYYCQQSYSTPQTFGQGTKVDIK
[9]
  EC50: 0.02 µg/mL
[10]
  EC50: 0.16 µg/mL
[11]
  EC50: 0.004 µg/mL
[12]
  EC50: 0.004 µg/mL
[13]
  PRNT Emax, MPXV MV: 51%
  PRNT Emax, MPXV MV+C': 64%
  PRNT IC50, MPXV MV: 25 µg/mL
  PRNT IC50, MPXV MV+C': 15 µg/mL

B5: VACV-154 (antibody, V domains shown)
VH: EVQLLESGGGLVQPGESLRLSCAASGFTLRNYAMSWVRQTPGKGLEWVSAISGSGGSTYYADSVKGRFTISRDTSKNTLYVQMNSLRAEDTAVYYCAKIRLDSSGYSGAFDIWGQGTRVTVSS
VL: SYELTQPPSVSVSPGQTARITCSGDALPKQYASWYQQKPGQAPVLVIYKDSERPSGIPERFSGSSSGTTVTLTISGVQAEDEADYYCQSADSSGTYPVVFGGGTQLTVL
[9]
  EC50: 0.06 µg/mL
[10]
  EC50: 0.3 µg/mL
[11]
  EC50: 0.02 µg/mL
[12]
  EC50: 0.02 µg/mL
[13]
  PRNT Emax, MPXV MV: 66%
  PRNT Emax, MPXV MV+C': 69%
  PRNT IC50, MPXV MV: 15 µg/mL
  PRNT IC50, MPXV MV+C': 14 µg/mL

B6: VACV-22 (antibody, V domains shown)
VH: QVQLVESGGGVVQPGRSLRLSCAASGFTFSNSGMHWVRQAPGKGLEWVAVIWFDGTNKYYADSVKGRFTISRDNSKNTLYLQMNSLRAEDTAVYYCARVPCGGDCYSGYLQHWGQGTLVTVSS
VL: AIVMTQSPATLSVSPGERATLSCRASQSVSSTLAWYQQKPGQAPRLLIYGASTKATGIPARFSGSGSGTEFTLTISSLQSEDFAVYYCQHYNNWPPLLTFGGGTKVDIK
[14]
  EC50: 0.02 µg/mL
[1]
  EC50: > 0.006 µg/mL
[15]
  EC50: > 0.009 µg/mL
[2]
  PRNT Emax, MPXV EV+C': 72%
  PRNT IC50, MPXV EV+C': 50 µg/mL

B7: VACV-301 (antibody, V domains shown)
VH: EVQLLESGGGLVQPGGSLRLSCAASGFSFSSYAMSWVRQAPGKGLEWVSGIGNSGDRTFYADSAKGRFTIFRDNSNNRLYLQMNSLRAADTAVYYCAKWGRFESGAFWGQGVLVTVSS
VL: SYELTQSPSVSVSPGQTARITCSGDALPEQYAYWYQQKPGQAPVLVIYKDSERPSGIPERFSGSGSGTTVTLTITGVQAEDEADYYCQSADNSGTYEVFGTGTKVTVL
[9]
  EC50: 0.04 µg/mL
[10]
  EC50: 0.11 µg/mL
[11]
  EC50: > 5.6 µg/mL
[12]
  EC50: > 1.4 µg/mL
[13]
  PRNT Emax, MPXV MV: 84%
  PRNT Emax, MPXV MV+C': 92%
  PRNT IC50, MPXV MV: 1.6 µg/mL
  PRNT IC50, MPXV MV+C': 0.8 µg/mL
[16]
  PRNT Emax, CPXV MV+C': 86%
  PRNT IC50, CPXV MV+C': 4 µg/mL

B8: MPXV-79 (antibody, V domains shown)
VH: QVQLVQSGAEVKKPGASVKVSCKASGYSFRSNGISWVRQAPGQGFEWLGWIAAYNGDTKYVQKFQGRLTMTTDTSTDTAYMELWSLRSDDTAVYYCARDPKLGRKGSAFDIWGQGTLVIVSS
VL: EIVLTQSPATLSLSPGGRATLSCRASQSVGNYLTWYQQKPGQAPRLLIFDGSTRATGIPARFSGSGSGTDFTLTISSLEPEDFAVYYCLQRSDLYTFGQGTKVDIK
[6]
  EC50: 0.004 µg/mL
[7]
  EC50: 0.003 µg/mL
[8]
  PRNT Emax, CPXV MV+C': 81%
  PRNT IC50, CPXV MV+C': 0.2 µg/mL
[17]
  PRNT Emax, MPXV MV: 67%
  PRNT IC50, MPXV MV: 12.5 µg/mL

B9: MPXV-83 (antibody, V domains shown)
VH: QVQLVESGGGVVQPGRSLRLSCAASGFTFSSYSMHWVRQAPGKGLEWVAVISFDGRSNYYADSVRGRFTISRDNSKKTMYLQMNSLRLADTAVYYCARGGIGAPDPRNGLEVWGRGAPVTLSS
VL: DIQMIQSPSSLSASVGDRVTISCQATQDISNSVNWYQQKPGKAPKLLIYDASTLETGVPSRFSGGGSGTHFTFTISSLQPEDIATYYCQQFHSLPPTFGQGPKGISK
[18]
  EC50: 0.065 µg/mL
[19]
  EC50: 0.03 µg/mL
[20]
  PRNT Emax, MPXV MV+C': 67%
  PRNT IC50, MPXV MV+C': 12.5 µg/mL
[21]
  PRNT Emax, CPXV MV: 69%
  PRNT Emax, CPXV MV+C': 78%
  PRNT IC50, CPXV MV: 0.2 µg/mL
  PRNT IC50, CPXV MV+C': 0.1 µg/mL

B10: MPXV-97 (antibody, V domains shown)
VH: QVQLVQSGGGVVQPGRSLTLSCSASGFIFTRYGLHWVRQAPGKGLEWVAVISSDGTNRHYADSVKGRFTVSRDNSKSTLYVQMNSLRNEDTAVYYCARLSLEAAWYFDLWGRGTLVTVSS
VL: QSVVTQPPSVSGAPGQRVTISCTGSSSNIGAGYDVHWYQHLPGTAPKVLIYGNTNRPSGVPDRFSGSKSGTSASLAITGLQAEDEADYYCQSYDNSLNGPWVFGTGTQ
[3]
  EC50: 0.001 µg/mL
[4]
  EC50: > 50 µg/mL
[5]
  EC50: 0.008 µg/mL
[22]
  PRNT Emax, MPXV MV: 96%
  PRNT Emax, MPXV MV+C': 76%
  PRNT IC50, MPXV MV: 0.02 µg/mL
  PRNT IC50, MPXV MV+C': 0.02 µg/mL

B11: VACV-300 (antibody, V domains shown)
V domain 1: QVQLVQSGAEVKKPGSSVKVSCKASGGTFSSYAISWVRQAPGQGLEWMGGIIPIFGTANYAQKFQGRVTITADESTGTAYMELTSLRSEDTAIYYCARASEQWLASINWFDPWGQGTLVTVSS
V domain 2: QSALTQPASVSGSPGQSITISCTGTSSDVGSYNLVSWYQQHPGKAPKLMIYEVSKRPSGVSNRFSASKSGNTASLTISGLQAEDEADYYCCSYAGSSTLVFGGGTQVTVL
[9]
  EC50: 0.14 µg/mL
[10]
  EC50: 0.79 µg/mL
[11]
  EC50: > 0.68 µg/mL
[12]
  EC50: 0.06 µg/mL

B12: MPXV-31 (antibody, V domains shown)
VH: QLQLQESGPGLVKPSETLSLTCTVSGGSISSRNFFWAWIRQPPGKGLEFIGSIFYSGGTYYNPSLKSRLSISVDTSRNQFSLRLSSVTAADTAVYYCARHMIVVLPGVPISTSFDPWGQGTL
VL: DIVMTQSPDSLAVSLGERATINCKSSQSVLSNSNNKNYLAWYQQKPGQPPRLLIYWASARESGVPDRFSGSGSGTDFTLTIISLQPEDVAVYYCQQYYSPPAELSFGGGTKVDIK
[3]
  EC50: 0.04 µg/mL
[4]
  EC50: 0.01 µg/mL
[5]
  EC50: 0.01 µg/mL

B13: VACV-314 (antibody, V domains shown)
VH: QVQLVQSGPGLVKPSETLSLTCTVSGGSISSYYWSWIRQPPGKGLEYIGHIYYSGGTKYNPSLRSRVTISVDTSKNQFSLKLTSVTAADTAVYYCARLAGRKPDADSWGQGTLVTVSS
VL: QPVLTQEPSLTVSPGGTVTLTCASSTGAVTSGFFPNWLQQKPGQAPRALIYSTNNKHSWTPARFSGSLLGGKAALTLSGVQPEDEAEYYCLLYYGGVVVFGGGTKLTVL
[6]
  EC50: 0.004 µg/mL
[7]
  EC50: 0.003 µg/mL
[8]
  PRNT Emax, CPXV MV+C': 85%
  PRNT IC50, CPXV MV+C': 0.7 µg/mL
[17]
  PRNT Emax, MPXV MV+C': 84%
  PRNT IC50, MPXV MV+C': 0.8 µg/mL
